These results are taken from paper PMC6627510 (2019).

This assay has as its target Stl_(SaPIbov1) protein (staphylococcal repressor) (Staphylococcus aureus). In words: ITC. In general terms: In ITC the heat of successive injections is recorded.

B1: Escherichia coli dUTPase Q93R mutant (enzyme)
chain: not shown
As to B1, binding was put at a Kd of 97.2 nM. That is a double-digit nanomolar value.

B2: Escherichia coli dUTPase Q93H mutant (enzyme)
chain: not shown
For the molecule B2, the equilibrium dissociation constant (Kd) came out at 60.8 nM.

A word on the Kd: it is the free concentration of one partner at which half of the binding sites on the other are occupied at equilibrium, for simple one-to-one binding. A low value points to a tighter complex.
